Measured values published in the supplement of paper PMC5998384.

Experiments:
HeLa Kyoto [1] = experiment: thermal stability score vs G1/S (z-score of summed log2 fold changes over temperatures); higher = more thermally stable than in G1/S
HeLa Kyoto [2] = experiment: melting temperature (median over replicates), in situ; higher = more thermally stable
[3] = cell cycle stage: early G1 (4.5 h after nocodazole release)
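Wherever melting temperature (median over replicates), in situ is given: HeLa Kyoto cells synchronized by double thymidine or nocodazole block, proteins quantified by TMT10plex mass spectrometry, three independent biological replicates.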
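Wherever thermal stability score vs G1/S (z-score of summed log2 fold changes over temperatures) is given: synchronized HeLa Kyoto cells, proteins quantified by TMT10plex mass spectrometry, three biological replicates, mitosis taken 0.5 h after nocodazole release, G1/S directly after double thymidine block.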

| Substance | thermal stability score (HeLa Kyoto [1]; [3]) | thermal stability score (HeLa Kyoto [1]; cell cycle stage: mitosis) | melting temperature (HeLa Kyoto [2]; cell cycle stage: G1/S) [°C] | melting temperature (HeLa Kyoto [2]; cell cycle stage: mitosis) [°C] |
| --- | --- | --- | --- | --- |
| TIMP1 | 0.849 | -1.24 | 54.8 | 54.5 |
| MAYQLYRNTTLGNSLQESLDELIQSQQITPQLALQVLLQFDKAINAALAQRVRNRVNFRGSLNTYRFCDNVWTFVLNDVEFREVTELIKVDKVKIVACDGKNTGSNTTE [GTF2A2] | 0.419 | 0.557 | 58.6 | 53.4 |
| MGKNKLLHPSLVLLLLVLLPTDASVSGKPQYMVLVPSLLHTETTEKGCVLLSYLNETVTVSASLESVRGNRSLFTDLEAENDVLHCVAFAVPKSSSNEEVMFLTVQVKGPTQEFKKRTTVMVKNEDSLVFVQTDKSIYKPGQTVKFRVVSMDENFHPLNELIPLVYIQDPKGNRIAQWQSFQLEGGLKQFSFPLSSEPFQGSYKVVVQKKSGGRTEHPFTVEEFVLPKFEVQVTVPKIITILEEEMNVSVCGLYTYGKPVPGHVTVSICRKYSDASDCHGEDSQAFCEKFSGQLNSHGCFYQQVKTKVFQLKRKEYEMKLHTEAQIQEEGTVVELTGRQSSEITRTITKLSFVKVDSHFRQGIPFFGQVRLVDGKGVPIPNKVIFIRGNEANYYSNATTDEHGLVQFSINTTNVMGTSLTVRVNYKDRSPCYGYQWVSEEHEEAHHTAYLVFSPSKSFVHLEPMSHELPCGHTQTVQAHYILNGGTLLGLKKLSFYYLIMAKGGIVRTGTHGLLVKQEDMKGHFSISIPVKSDIAPVARLLIYAVLPTGDVIGDSAKYDVENCLANKVDLSFSPSQSLPASHAHLRVTAAPQSVCALRAVDQSVLLMKPDAELSASSVYNLLPEKDLTGFPGPLNDQDNEDCINRHNVYINGITYTPVSSTNEKDMYSFLEDMGLKAFTNSKIRKPKMCPQLQQYEMHGPEGLRVGFYESDVMGRGHARLVHVEEPHTETVRKYFPETWIWDLVVVNSAGVAEVGVTVPDTITEWKAGAFCLSEDAGLGISSTASLRAFQPFFVELTMPYSVIRGEAFTLKATVLNYLPKCIRVSVQLEASPAFLAVPVEKEQAPHCICANGRQTVSWAVTPKSLGNVNFTVSAEALESQELCGTEVPSVPEHGRKDTVIKPLLVEPEGLEKETTFNSLLCPSGGEVSEELSLKLPPNVVEESARASVSVLGDILGSAMQNTQNLLQMPYGCGEQNMVLFAPNIYVLDYLNETQQLTPEIKSKAIGYLNTGYQRQLNYKHYDGSYSTFGERYGRNQGNTWLTAFVLKTFAQARAYIFIDEAHITQALIWLSQRQKDNGCFRSSGSLLNNAIKGGVEDEVTLSAYITIALLEIPLTVTHPVVRNALFCLESAWKTAQEGDHGSHVYTKALLAYAFALAGNQDKRKEVLKSLNEEAVKKDNSVHWERPQKPKAPVGHFYEPQAPSAEVEMTSYVLLAYLTAQPAPTSEDLTSATNIVKWITKQQNAQGGFSSTQDTVVALHALSKYGAATFTRTGKAAQVTIQSSGTFSSKFQVDNNNRLLLQQVSLPELPGEYSMKVTGEGCVYLQTSLKYNILPEKEEFPFALGVQTLPQTCDEPKAHTSFQISLSVSYTGSRSASNMAIVDVKMVSGFIPLKPTVKMLERSNHVSRTEVSSNHVLIYLDKVSNQTLSLFFTVLQDVPVRDLKPAIVKVYDYYETDEFAIAEYNAPCSKDLGNA [A2M] | -2.38 | -0.965 |  |  |
| TTC3 | 0.321 | -0.39 |  |  |
| MNSMNPMKPALPPAPHGDGSFAYESVPWQQSATQPAGSLSVVTTVWGVGNATQSQVLGNPMGPAGSPSGSSMMPGVAGGSSALTSPQCLGQQAFAEGGANKGYVQQGVYSRGGYPGAPGFTTGYAGGPGGLGLPSHAARPSTDFTQAAAAAAVAAAAATATATATATVAALQEKQSQELSQYGAMGAGQSFNSQFLQHGGPRGPSVPAGMNPTGIGGVMGPSGLSPLAMNPTRAAGMTPLYAGQRLPQHGYPGPPQAQPLPRQGVKRTYSEVYPGQQYLQGGQYAPSTAQFAPSPGQPPAPSPSYPGHRLPLQQGMTQSLSVPGPTGLHYKPTEQFNGQGASFNGGSVSYSQPGLSGPTRSIPGYPSSPLPGNPTPPMTPSSSVPYMSPNQEVKSPFLPDLKPNLNSLHSSPSGSGPCDELRLTFPVRDGVVLEPFRLQHNLAVSNHVFQLRDSVYKTLIMRPDLELQFKCYHHEDRQMNTNWPASVQVSVNATPLTIERGDNKTSHKPLYLKHVCQPGRNTIQITVTACCCSHLFVLQLVHRPSVRSVLQGLLKKRLLPAEHCITKIKRNFSSGTIPGTPGPNGEDGVEQTAIKVSLKCPITFRRIQLPARGHDCRHIQCFDLESYLQLNCERGTWRCPVCNKTALLEGLEVDQYMLGILIYIQNSDYEEITIDPTCSWKPVPVKPDMHIKEEPDGPALKRCRTVSPAHVLMPSVMEMIAALGPGAAPFAPLQPPSVPAPSDYPGQGSSFLGPGTFPESFPPTTPSTPTLAEFTPGPPPISYQSDIPSSLLTSEKSTACLPSQMAPAGHLDPTHNPGTPGLHTSNLGAPPGPQLHHSNPPPASRQSLGQASLGPTGELAFSPATGVMGPPSMSGAGEAPEPALDLLPELTNPDELLSYLGPPDLPTNNNDDLLSLFENN [ZMIZ2] | 0.174 | 0.237 |  |  |
| MKAIIHLTLLALLSVNTATNQGNSADAVTTTETATSGPTVAAADTTETNFPETASTTANTPSFPTATSPAPPIISTHSSSTIPTPAPPIISTHSSSTIPIPTAADSESTTNVNSLATSDIITASSPNDGLITMVPSETQSNNEMSPTTEDNQSSGPPTGTALLETSTLNSTGPSNPCQDDPCADNSLCVKLHNTSFCLCLEGYYYNSSTCKKGKVFPGKISVTVSETFDPEEKHSMAYQDLHSEITSLFKDVFGTSVYGQTVILTVSTSLSPRSEMRADDKFVNVTIVTILAETTSDNEKTVTEKINKAIRSSSSNFLNYDLTLRCDYYGCNQTADDCLNGLACDCKSDLQRPNPQSPFCVASSLKCPDACNAQHKQCLIKKSGGAPECACVPGYQEDANGNCQKCAFGYSGLDCKDKFQLILTIVGTIAGIVILSMIIALIVTARSNNKTKHIEEENLIDEDFQNLKLRSTGFTNLGAEGSVFPKVRITASRDSQMQNPYSRHSSMPRPDY [MUC13] | -3.46 | -1.12 |  |  |
| MGQCGITSSKTVLVFLNLIFWGAAGILCYVGAYVFITYDDYDHFFEDVYTLIPAVVIIAVGALLFIIGLIGCCATIRESRCGLATFVIILLLVFVTEVVVVVLGYVYRAKVENEVDRSIQKVYKTYNGTNPDAASRAIDYVQRQLHCCGIHNYSDWENTDWFKETKNQSVPLSCCRETASNCNGSLAHPSDLYAEGCEALVVKKLQEIMMHVIWAALAFAAIQLLGMLCACIVLCRRSRDPAYELLITGGTYA [TSPAN3] | -0.556 | -0.785 |  |  |
| MGNPENIEDAYVAVIRPKNTASLNSREYRAKSYEILLHEVPIEGQKKKRKKVLLETKLQGNSEITQGILDYVVETTKPISPANQGIRGKRVVLMKKFPLDGEKMGREASLFIVPSVVKDNTKYTYTPGCPIFYCLQDIMRVCSESSTHFATLTARMLIALDKWLDERHAQSHFIPALFRPSPLERIKTNVINPAYATESGQTENSLHMGYSALEIKSKMLALEKADTCIYNPLFGSDLQYTNRVDKVVINPYFGLGAPDYSKIQIPKQEKWQRSMSSVTEDKERQWVDDFPLHRSACEGDSELLSRLLSERFSVNQLDSDHWAPIHYACWYGKVEATRILLEKGKCNPNLLNGQLSSPLHFAAGGGHAEIVQILLNHPETDRHITDQQGRSPLNICEENKQNNWEEAAKLLKEAINKPYEKVRIYRMDGSYRSVELKHGNNTTVQQIMEGMRLSQETQQYFTIWICSENLSLQLKPYHKPLQHVRDWPEILAELTNLDPQRETPQLFLRRDVRLPLEVEKQIEDPLAILILFDEARYNLLKGFYTAPDAKLITLASLLLQIVYGNYESKKHKQGFLNEENLKSIVPVTKLKSKAPHWTNRILHEYKNLSTSEGVSKEMHHLQRMFLQNCWEIPTYGAAFFTGQIFTKASPSNHKVIPVYVGVNIKGLHLLNMETKALLISLKYGCFMWQLGDTDTCFQIHSMENKMSFIVHTKQAGLVVKLLMKLNGQLMPTERNS [KRIT1] | -0.252 | 0.0145 |  |  |
